{
  "source": "patent US20260201028A1",
  "about": "(SINGAPORE HEALTH SERVICES PTE, published 2026)",
  "target": "human TRPM4 (transient receptor potential melastatin 4) in transfected HEK 293 cells (human, UniProt Q8TD43 1-1214)",
  "sequence (Q8TD43 whole entry)": "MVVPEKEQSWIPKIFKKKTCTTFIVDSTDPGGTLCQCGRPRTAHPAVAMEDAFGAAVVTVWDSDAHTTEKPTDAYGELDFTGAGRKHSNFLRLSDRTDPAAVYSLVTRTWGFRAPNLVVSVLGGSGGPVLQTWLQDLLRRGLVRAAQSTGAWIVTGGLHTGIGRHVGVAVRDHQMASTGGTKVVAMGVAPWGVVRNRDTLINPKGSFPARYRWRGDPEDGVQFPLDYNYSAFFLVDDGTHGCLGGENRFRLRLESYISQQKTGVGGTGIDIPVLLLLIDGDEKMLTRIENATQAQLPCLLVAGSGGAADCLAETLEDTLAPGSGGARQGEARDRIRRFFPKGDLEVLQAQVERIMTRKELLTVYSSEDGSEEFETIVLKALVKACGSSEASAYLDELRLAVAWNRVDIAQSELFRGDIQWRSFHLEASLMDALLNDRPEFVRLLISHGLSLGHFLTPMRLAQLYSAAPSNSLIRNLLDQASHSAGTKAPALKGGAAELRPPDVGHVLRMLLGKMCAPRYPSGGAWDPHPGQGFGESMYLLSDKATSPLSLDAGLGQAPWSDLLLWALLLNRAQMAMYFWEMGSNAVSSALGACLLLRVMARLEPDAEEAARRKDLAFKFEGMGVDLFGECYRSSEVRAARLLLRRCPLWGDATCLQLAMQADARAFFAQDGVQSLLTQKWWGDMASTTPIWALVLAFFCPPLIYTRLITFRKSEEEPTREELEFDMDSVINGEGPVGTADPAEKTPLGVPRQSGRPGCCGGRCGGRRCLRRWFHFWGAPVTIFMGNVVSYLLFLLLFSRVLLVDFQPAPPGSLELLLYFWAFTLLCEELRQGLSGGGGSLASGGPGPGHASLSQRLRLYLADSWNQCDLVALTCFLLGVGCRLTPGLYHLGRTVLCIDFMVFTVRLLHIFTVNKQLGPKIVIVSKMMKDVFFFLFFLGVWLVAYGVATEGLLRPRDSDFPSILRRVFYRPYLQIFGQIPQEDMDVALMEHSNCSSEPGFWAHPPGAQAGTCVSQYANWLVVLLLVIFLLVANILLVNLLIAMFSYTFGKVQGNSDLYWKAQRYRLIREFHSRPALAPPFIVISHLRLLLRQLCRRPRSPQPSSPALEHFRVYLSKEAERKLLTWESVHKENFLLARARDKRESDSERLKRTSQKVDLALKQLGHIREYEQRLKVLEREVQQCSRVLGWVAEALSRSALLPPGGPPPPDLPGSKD",
  "test": "cell-based or functional assay",
  "data": [
    {"binder": "humanized anti-TRPM4 antibody clone A2 (VH1 + VL1) (antibody, human IgG1, kappa, V domains shown) VH: QVQLQESGPGLVKPSQTLSLTCTVSGYSITSDYAWNWIRQHPGKGLEWIGYLSYSGVTSYNPSLKGRVTISVDTSKNQFSLKLSSVTAADTAVYYCARKGTYYRYEGSYWYFDVWGQGTTVTVSS VL: DIQMTQSPSSLSASVGDRVTITCHANQNIDVWLSWYQQKPGKAPKLLIYKTSNLHTGVPSRFSGSGSGTDFTFTISSLQPEDIATYYCQQGQSYPLTFGGGTKLEIKR", "values": [
      {"measurement": "IC50, dose-dependent inhibition of hypoxia-induced TRPM4 current increase", "result": 1.23, "unit": "µg/mL"}
    ]}
  ]
}
